Consider 167 variants from the RNAGym collection of RNA variant scans (doi:10.7554/elife.80360).

First the molecules themselves.
B1: CPEB3 Ribozyme (parent)
chain: GGGGGCCACAGCAGAAGCGUUCACGUCGCGGCCCCUGUCAGAUUCUGGUGAAUCUGCGAAUUCUGCUGU

Variants of B1 are the subject of this data set. Description: self-cleavage, relative activity (ratio to wild type); higher = more cleavage; co-transcriptional.
On to C7G C39U, for which the self-cleavage was 0.326.
The figure for C7G C39A is 0.141; for A8C C34A it is 0.834.
The figure for A8C C34G is 0.859; for A8C C34U it is 0.972; for C7U it is 0.968.
For the variant C7G C32G, the self-cleavage was found to be 0.106.
In the case of C7G C32U, the self-cleavage amounted to 0.177.
Consider A8C G37A, for which the self-cleavage amounted to 0.207.
A8C G37U: the self-cleavage turned out to be 0.257.
On to C7G C24G, for which the self-cleavage turned out to be 0.0776.
For C7G C24U, the self-cleavage stood at 0.107.
As to C7G U64G, the self-cleavage was 0.232.
For C7G U64C the value was 0.17; for C7G U64A, 0.279; for A8C G47A, 1.02.
As to C7U G28C, the self-cleavage turned out to be 0.197.
For C7U G28U the value was 0.146; for C7G G50A, 0.456.
Take C7G G50C: the self-cleavage is 0.294.
With C7G G50U, the self-cleavage worked out at 0.465.
Consider C7U C24A, for which the self-cleavage was determined as 0.499.
As to C7U A13C, the self-cleavage is 0.871.
Regarding C7U A13G, the self-cleavage is 0.936.
For A8C C45A the value was 1.01; for A8C C45U, 1.04.
The figure for C7U C9G is 1.01; for C7U C9A it is 1.05; for C7U C9U it is 1.06.
For C7U A23C the value was 0.87.
On to C7U A23G, for which the self-cleavage is 0.909.
The figure for C7U A23U is 0.955.
For the variant C7G C45A, the self-cleavage was determined as 0.378.
For C7G C45U the value was 0.425.
The figure for C7G C45G is 0.295; for A8C C22A it is 0.163.
For A8C C22G the value was 0.19; for A8C C22U, 0.22.
As to A8C G30A, the self-cleavage came out at 0.951.
On to A8C G30U, for which the self-cleavage stood at 0.492.
Take A8C G30C: the self-cleavage was determined as 0.758.
Turning to A8C, the self-cleavage is 0.999.
With C7G U67A, the self-cleavage amounted to 0.773.
For C7G U67C, the self-cleavage came to 0.635.
In the case of A8C A59U, the self-cleavage was found to be 0.821.
As for A8C A59G, the self-cleavage came to 1.
The figure for C7U C32G is 0.148; for C7U C32A it is 0.436.
With C7U A15C, the self-cleavage is 0.693.
For C7U A15U the value was 0.534; for C7U A15G, 0.927.
For the variant A8C A16C, the self-cleavage was found to be 0.325.
The figure for A8C A16U is 0.843; for A8C A16G it is 0.962.
For C7U G68A, the self-cleavage was determined as 0.971.
Regarding C7U G68C, the self-cleavage stood at 0.673.
Consider C7U A42C, for which the self-cleavage came out at 0.901.
Regarding C7U A42U, the self-cleavage turned out to be 0.899.
The figure for A8C C39U is 0.947; for A8C C39A it is 0.848; for A8C C39G it is 0.927.
As to C7U G58A, the self-cleavage turned out to be 0.928.
For C7U G58C the value was 0.873; for C7U U53A, 0.861.
On to C7U U53G, for which the self-cleavage was 0.949.
The figure for C7U C66G is 0.898; for A8C A42G it is 0.939; for A8C A42U it is 0.918.
For C7G G30U, the self-cleavage was 0.564.
For the variant C7U G41A, the self-cleavage is 0.748.
Regarding C7U G41U, the self-cleavage stood at 0.692.
The figure for C7G C66U is 0.459; for C7G C66G it is 0.176.
With C7G C66A, the self-cleavage is 0.134.
With C7U G47A, the self-cleavage came out at 0.954.
Take C7U G47C: the self-cleavage amounted to 0.917.
For C7G G48U the value was 0.548; for C7G G48A, 0.457.
For C7G G31A the value was 0.45; for C7G G31C, 0.101.
The figure for C7G G31U is 0.521; for C7G U44C it is 0.282; for C7G U44G it is 0.252.
Consider C7G U44A, for which the self-cleavage stood at 0.28.
Consider C7U A40U, for which the self-cleavage was 0.683.
For the variant C7U A40G, the self-cleavage was 0.934.
For the variant C7U A40C, the self-cleavage was 0.282.
As for C7U U38C, the self-cleavage is 0.819.
The figure for C7U U38A is 0.774; for C7U U38G it is 0.193.
C7U C12A: the self-cleavage came out at 0.555.
With C7G C63G, the self-cleavage came to 0.113.
As for C7G C63U, the self-cleavage was 0.316.
For C7G C63A the value was 0.237; for C7U G25A, 0.144.
Turning to C7U G25C, the self-cleavage stood at 0.0703.
In the case of A8C G19A, the self-cleavage amounted to 0.189.
For C7U U67C the value was 0.982; for C7U U67A, 0.985.
The figure for C7U U67G is 0.959; for C7G U69C it is 0.861.
As for C7G U69G, the self-cleavage is 0.779.
The figure for A8C G68C is 1; for A8C G68U it is 1.02.
Take C7U U55A: the self-cleavage came to 0.914.
Consider C7G A60G, for which the self-cleavage stood at 0.175.
Consider C7G A60U, for which the self-cleavage was determined as 0.187.
For A8C C63U the value was 0.972; for A8C C63A, 0.76; for C7G C54A, 0.138.
With C7G C54U, the self-cleavage turned out to be 0.507.
On to C7G C54G, for which the self-cleavage turned out to be 0.17.
The figure for C7U G19U is 0.247; for C7U G19C it is 0.155; for C7U G19A it is 0.113.
In the case of C7U C39A, the self-cleavage stood at 0.686.
Turning to C7U C39G, the self-cleavage was 0.911.
For C7U C39U the value was 0.803; for C7G G14C, 0.0631.
C7G G14U: the self-cleavage amounted to 0.0864.
For C7U G14A the value was 0.509; for C7U G14U, 0.503; for A8C A23G, 0.997.
Regarding A8C A23C, the self-cleavage was 0.907.
For A8C A23U the value was 1.01; for A8C G56A, 0.999.
In the case of A8C G56C, the self-cleavage turned out to be 0.83.
For C7G A59G the value was 0.307; for C7U G48U, 0.966; for C7U G48A, 0.987.
The figure for C7U A59C is 0.403.
For the variant C7U A59G, the self-cleavage came to 0.93.
For C7U A59U, the self-cleavage worked out at 0.554.
For C7U G56C the value was 0.618.
The figure for C7U G56U is 0.849.
With C7U C35U, the self-cleavage is 0.947.
For C7U G11U the value was 0.715.
In the case of C7G A40U, the self-cleavage came out at 0.161.
Regarding C7U C45A, the self-cleavage was 0.919.
The figure for C7U C45U is 0.892; for C7U C45G it is 1.02.
For C7G C18G the value was 0.116.
On to C7G C18U, for which the self-cleavage was 0.107.
On to C7U C33A, for which the self-cleavage is 0.656.
For C7U C33G the value was 0.245; for C7U C33U, 0.939; for A8C A51U, 1.01.
For the variant C7G G65C, the self-cleavage came out at 0.126.
The figure for C7G G65U is 0.217; for C7G G65A it is 0.162.
For C7G U62C the value was 0.285; for C7G U62G, 0.244.
The figure for A8C G17U is 0.444.
A8C G17A: the self-cleavage was 0.269.
Consider A8C G17C, for which the self-cleavage amounted to 0.165.
As for C7G G58U, the self-cleavage stood at 0.528.
For C7G G58C, the self-cleavage came to 0.285.
With A8C C9U, the self-cleavage came to 1.01.
For A8C C9G the value was 0.922.
As for A8C C9A, the self-cleavage came to 1.01.
Consider A8C G41A, for which the self-cleavage is 0.89.
Take A8C G41U: the self-cleavage was determined as 0.78.
A8C C66U: the self-cleavage worked out at 1.02.
In the case of A8C C66G, the self-cleavage came out at 0.871.
The figure for A8C A10U is 0.966.
As for A8C A10C, the self-cleavage is 0.975.
With A8C A10G, the self-cleavage was determined as 0.941.
